Reference: publication PMC7817833

Columns and labels:
14-3-3γ [1] = molecular target: 14-3-3γ (UniProt P61981); assay: co-immunoprecipitation of Myc-ENDOG, western blot; settings: reference: Myc-ENDOG wild type; sites T128,S288
14-3-3γ [2] = molecular target: 14-3-3γ (UniProt P61981); assay: co-immunoprecipitation, western blot; settings: reference: wild-type ENDOG; sites T128,S288

Row | Substance | binding against the reference (14-3-3γ [1]) | binding against the reference (14-3-3γ [2])
1 | ENDOG (Endonuclease G) (from UniProt Q14249) Myc-ENDOG-AA (T128A/S288A) | weaker | –
2 | ENDOG (Endonuclease G) (from UniProt Q14249) T128A/S288A (AA) | – | weaker
